Laboratory results: patent publication US20070053905A1 (Chugai, published 2007)

B1: mouse monoclonal antibody #23-57-137-1 (antibody, V domains shown)
VH: EVQLVESGGDLVKPGGSLKLSCAASGFTFSSYGMSWIRQTPDKRLEWVATISSGGSYTYYPDSVKGRFTISRDNAKNTLYLQMSSLKSEDTAMFYCARQTTMTYFAYWGQGTLVTVSA
VL: QLVLTQSSSASFSLGASAKLTCTLSSQHSTYTIEWYQQQPLKPPKYVMDLKQDGSHSTGDGIPDRFSGSSSGADRYLSISNIQPEDEAMYICGVGDTIKEQFVYVFGGGTKVTVLG
notes: Mouse hybridoma antibody; The L chain is a mouse lambda chain; the H chain was cloned with a mouse gamma-1 primer (MHC-G1); also called anti-PTHrP MoAb
B2: humanized #23-57-137-1 antibody with H chain version "a" and L chain version "s" (antibody, V domains shown)
VH: QVQLVESGGGVVQPGRSLRLSCAASGFTFSSYGMSWVRQAPGKGLEWVATISSGGSYTYYPDSVKGRFTISRDNSKNTLYLQMNSLRAEDTAVYYCARQTTMTYFAYWGQGTLVTVSS
VL: QLVLTQSPSASASLGASVKLTCTLSSQHSTYTIEWYQQQPEKGPKYVMDLKQDGSHSTGDGIPDRFSGSSSGAERYLTISSLQSEDEADYICGVGDTIKEQFVYVFGGGTKLTVLG
notes: Human Cγ1 (IgG1) and human lambda C domain; also called hMBC1HcDNA/pCOS1 + hMBC1Lsλ/pCOS1
B3: mouse FR1, 2/human FR3, 4 hybrid antibody (L chain m/hMBC1Ldλ) (antibody, V domains shown)
VH: QVQLVESGGGVVQPGRSLRLSCAASGFTFSSYGMSWVRQAPGKGLEWVATISSGGSYTYYPDSVKGRFTISRDNSKNTLYLQMNSLRAEDTAVYYCARQTTMTYFAYWGQGTLVTVSS
VL: QLVLTQSSSASFSLGASAKLTCTLSSQHSTYTIEWYQQQPLKPPKYVMDLKQDGSHSTGDGIPDRFSGSSSGAERYLTISSLQSEDEADYICGVGDTIKEQFVYVFGGGTKLTVL
notes: Human Cγ1 and human lambda C domain; Expressed in COS-7 cells; also called hMBC1HcDNA/pCOS1 + m/hMBC1Ldλ/neo
B4: mouse FR1, 2/human FR3, 4 hybrid antibody (L chain m/hMBC1Laλ) (antibody, V domains shown)
VH: QVQLVESGGGVVQPGRSLRLSCAASGFTFSSYGMSWVRQAPGKGLEWVATISSGGSYTYYPDSVKGRFTISRDNSKNTLYLQMNSLRAEDTAVYYCARQTTMTYFAYWGQGTLVTVSS
VL: QLVLTQSSSASFSLGASAKLTCTLSSQHSTYTIEWYQQQPLKPPKYVMDLKQDGSHSTGDGIPDRFSGSSSGAERYLTISSLQSEDEADYYCGVGDTIKEQFVYVFGGGTKLTVL
notes: Human Cγ1 and human lambda C domain; Expressed in COS-7 cells; also called hMBC1HcDNA/pCOS1 + m/hMBC1Laλ/neo
B5: humanized #23-57-137-1 antibody with H chain version "a" and L chain version "q" (antibody, IgG1, V domains shown)
VH: QVQLVESGGGVVQPGRSLRLSCAASGFTFSSYGMSWVRQAPGKGLEWVATISSGGSYTYYPDSVKGRFTISRDNSKNTLYLQMNSLRAEDTAVYYCARQTTMTYFAYWGQGTLVTVSS
VL: QLVLTQSPSASASLGASVKLTCTLSSQHSTYTIEWYQQQPEKGPKYLMDLKQDGSHSTGDGIPDRFSGSSSGAERYLTISSLQSEDEADYICGVGDTIKEQFVYVFGGGTKLTVLG
notes: Human Cγ1 (IgG1) and human lambda C domain; also called hMBC1HcDNA + hMBC1Lqλ; FERM BP-5629 / FERM BP-5630
B6: humanized #23-57-137-1 antibody with H chain version "a" and L chain version "o" (antibody, IgG1, V domains shown)
VH: QVQLVESGGGVVQPGRSLRLSCAASGFTFSSYGMSWVRQAPGKGLEWVATISSGGSYTYYPDSVKGRFTISRDNSKNTLYLQMNSLRAEDTAVYYCARQTTMTYFAYWGQGTLVTVSS
VL: QLVLTQSPSASASLGASVKLTCTLSSQHSTYTIEWYQQQPEKGPRYVMDLKQDGSHSTGDGIPDRFSGSSSGAERYLTISSLQSEDEADYYCGVGDTIKEQFVYVFGGGTKLTVLG
notes: Human Cγ1 (IgG1) and human lambda C domain; Expressed in COS-7 cells; also called hMBC1HcDNA/pCOS1 + hMBC1Loλ/pCOS1
B7: humanized #23-57-137-1 antibody with H chain version "a" and L chain version "r" (antibody, V domains shown)
VH: QVQLVESGGGVVQPGRSLRLSCAASGFTFSSYGMSWVRQAPGKGLEWVATISSGGSYTYYPDSVKGRFTISRDNSKNTLYLQMNSLRAEDTAVYYCARQTTMTYFAYWGQGTLVTVSS
VL: QLVLTQSPSASASLGASVKLTCTLSSQHSTYTIEWYQQQPEKGPRYLMDLKQDGSHSTGDGIPDRFSGSSSGAERYLTISSLQSEDEADYICGVGDTIKEQFVYVFGGGTKLTVLG
notes: Human Cγ1 (IgG1) and human lambda C domain; also called hMBC1HcDNA + hMBC1Lrλ
B8: humanized #23-57-137-1 antibody with H chain version "a" and L chain version "t" (antibody, IgG1, V domains shown)
VH: QVQLVESGGGVVQPGRSLRLSCAASGFTFSSYGMSWVRQAPGKGLEWVATISSGGSYTYYPDSVKGRFTISRDNSKNTLYLQMNSLRAEDTAVYYCARQTTMTYFAYWGQGTLVTVSS
VL: QLVLTQSPSASASLGASVKLTCTLSSQHSTYTIEWYQQQPEKGPRYVMDLKQDGSHSTGDGIPDRFSGSSSGAERYLTISSLQSEDEADYICGVGDTIKEQFVYVFGGGTKLTVLG
notes: Human Cγ1 (IgG1) and human lambda C domain; Expressed in COS-7 cells; also called hMBC1HcDNA/pCOS1 + hMBC1Ltλ/pCOS1
B9: humanized #23-57-137-1 antibody with H chain version "a" and L chain version "l" (antibody, IgG1, V domains shown)
VH: QVQLVESGGGVVQPGRSLRLSCAASGFTFSSYGMSWVRQAPGKGLEWVATISSGGSYTYYPDSVKGRFTISRDNSKNTLYLQMNSLRAEDTAVYYCARQTTMTYFAYWGQGTLVTVSS
VL: QLVLTQSPSASASLGASVKLTCTLSSQHSTYTIEWYQQQPEKGPKYVMDLKQDGSHSTGDGIPDRFSGSSSGAERYLTISSLQSEDEADYYCGVGDTIKEQFVYVFGGGTKLTVLG
notes: Human Cγ1 (IgG1) and human lambda C domain; Expressed in COS-7 cells; also called hMBC1HcDNA/pCOS1 + hMBC1Llλ/pCOS1
B10: human FR1/mouse FR2, 3, 4 hybrid antibody (L chain hmmMBC1L(λ)) (antibody, V domains shown)
VH: QVQLVESGGGVVQPGRSLRLSCAASGFTFSSYGMSWVRQAPGKGLEWVATISSGGSYTYYPDSVKGRFTISRDNSKNTLYLQMNSLRAEDTAVYYCARQTTMTYFAYWGQGTLVTVSS
VL: QLVLTQSPSASASLGASVKLTCTLSSQHSTYTIEWYQQQPLKPPKYVMDLKQDGSHSTGDGIPDRFSGSSSGADRYLSISNIQPEDEAMYICGVGDTIKEQFVYVFGGGTKVTVL
notes: Human Cγ1 and human lambda C domain; Expressed in COS-7 cells; also called hMBC1HcDNA/pCOS1 + hmmMBC1L(λ)/neo
B11: humanized #23-57-137-1 antibody with H chain version "a" and L chain version "m" (antibody, IgG1, V domains shown)
VH: QVQLVESGGGVVQPGRSLRLSCAASGFTFSSYGMSWVRQAPGKGLEWVATISSGGSYTYYPDSVKGRFTISRDNSKNTLYLQMNSLRAEDTAVYYCARQTTMTYFAYWGQGTLVTVSS
VL: QLVLTQSPSASASLGASVKLTCTLSSQHSTYTIEWYQQQPEKGPRYLMDLKQDGSHSTGDGIPDRFSGSSSGAERYLTISSLQSEDEADYYCGVGDTIKEQFVYVFGGGTKLTVLG
notes: Human Cγ1 (IgG1) and human lambda C domain; Expressed in COS-7 cells; also called hMBC1HcDNA/pCOS1 + hMBC1Lmλ/pCOS1
B12: antibody in which humanized H chain version "a" was combined with a chimera L chain (antibody, V domains shown)
VH: QVQLVESGGGVVQPGRSLRLSCAASGFTFSSYGMSWVRQAPGKGLEWVATISSGGSYTYYPDSVKGRFTISRDNSKNTLYLQMNSLRAEDTAVYYCARQTTMTYFAYWGQGTLVTVSS
VL: QLVLTQSSSASFSLGASAKLTCTLSSQHSTYTIEWYQQQPLKPPKYVMDLKQDGSHSTGDGIPDRFSGSSSGADRYLSISNIQPEDEAMYICGVGDTIKEQFVYVFGGGTKVTVLG
notes: H chain has human Cγ1; also called humanized H chain version a + chimera L chain
B13: humanized #23-57-137-1 antibody with H chain version "a" and L chain version "j" (antibody, IgG1, V domains shown)
VH: QVQLVESGGGVVQPGRSLRLSCAASGFTFSSYGMSWVRQAPGKGLEWVATISSGGSYTYYPDSVKGRFTISRDNSKNTLYLQMNSLRAEDTAVYYCARQTTMTYFAYWGQGTLVTVSS
VL: QLVLTQSPSASASLGASVKLTCTLSSQHSTYTIEWYQQQPEKGPKYLMDLKQDGSHSTGDGIPDRFSGSSSGAERYLTISSLQSEDEADYYCGVGDTIKEQFVYVFGGGTKLTVLG
notes: Human Cγ1 (IgG1) and human lambda C domain; Expressed in COS-7 cells; also called hMBC1HcDNA/pCOS1 + hMBC1Ljλ/pCOS1
B14: chimera #23-57-137-1 antibody with human L chain kappa chain C domain (antibody, IgG1, V domains shown)
VH: EVQLVESGGDLVKPGGSLKLSCAASGFTFSSYGMSWIRQTPDKRLEWVATISSGGSYTYYPDSVKGRFTISRDNAKNTLYLQMSSLKSEDTAMFYCARQTTMTYFAYWGQGTLVTVSA
VL: QLVLTQSSSASFSLGASAKLTCTLSSQHSTYTIEWYQQQPLKPPKYVMDLKQDGSHSTGDGIPDRFSGSSSGADRYLSISNIQPEDEAMYICGVGDTIKEQFVYVFGGGTKVTVLG
notes: Mouse V domains joined to human Cγ1 (IgG1) and to the human kappa C domain (from plasmid HEF-PM1k-gk); Expressed in COS-7 cells; also called chimeric antibody; MBC1HcDNA/pCOS1 + MBC1L(κ)/neo
B15: chimera #23-57-137-1 antibody with human L chain lambda chain C domain (antibody, IgG1, V domains shown)
VH: EVQLVESGGDLVKPGGSLKLSCAASGFTFSSYGMSWIRQTPDKRLEWVATISSGGSYTYYPDSVKGRFTISRDNAKNTLYLQMSSLKSEDTAMFYCARQTTMTYFAYWGQGTLVTVSA
VL: QLVLTQSSSASFSLGASAKLTCTLSSQHSTYTIEWYQQQPLKPPKYVMDLKQDGSHSTGDGIPDRFSGSSSGADRYLSISNIQPEDEAMYICGVGDTIKEQFVYVFGGGTKVTVLG
notes: Expressed in COS-7 cells; also called chimeric antibody; MBC1HcDNA/pCOS1 + MBC1L(λ)/neo

Molecular target: T1, human PTHrP (1-34) (human)
T1 construct: Synthetic peptide (Peninsula / Peptide Research Institute); coated on ELISA plates at 1 ug/ml; also called parathyroid hormone related peptide (1-34)
Test: solid phase RIA of hybridoma culture supernatant
Procedure: Screening of hybridomas was performed by measuring and selecting the existence of a PTHrP recognizing antibody by applying solid phase RIA method to the culture supernatant of the wells where growth was recognized in HAT culture medium.

Binding result, binds:
B1

Molecular target: T1, human PTHrP (1-34)
Test: ELISA on plate coated with human PTHrP (1-34)
Procedure: The ELISA plate for antigen binding measurement was prepared as follows. Each well of a 96 well plate for ELISA was coated with 100 μl of human PTHrP(1-34) (Peptide Research Institute) adjusted to 1 μg/ml concentration by the coating buffer. […] After the plate was incubated at room temperature and washed with PBS-Tween20, 100 μl of alkaline phosphatase (TAGO) conjugated goat anti-man IgG antibody was added. After the plate was incubated at room temperature and washed with PBS-Tween20, 1 mg/ml of a substrate solution (Sigma104, p-nitrophenylphosphate, SIGMA) was added, and, next, 405 nm absorption was measured with a micro plate reader (Bio Rad).
The ELISA plate for antigen binding measurement was prepared as follows. Each well of a 96 well plate for ELISA was coated with 100 μl of human PTHrP(1-34) adjusted to 1 μg/ml concentration by the coating buffer. After blocking with 200 μl of the dilution buffer, the culture supernatant of the COS-7 cells in which hybrid antibody or humanized antibody was expressed or the purified hybrid antibody or the humanized antibody was stepwise diluted and added to each well. After the plate was incubated at room temperature and washed with PBS-Tween20, 100 μl of alkaline phosphatase (TAGO) conjugated goat anti-man IgG antibody was added. After the plate was incubated at room temperature and washed with PBS-Tween20, 1 mg/ml of a substrate solution (Sigma104, p-nitrophenylphosphate, SIGMA) was added, and 405 nm absorption was then measured on a micro plate reader (Bio Rad).

Binding result, binds:
B2
B3
B4
B5
B6
B7
B8
B9
B10
B11
B12
B13
B14
B15
